This is an account of results in the domain aggregation screens of Martell et al. (2025).

A short description of this data set: soluble fraction after stress (log2 fold change); higher = more stays soluble; pooled small domains, quantitative proteomics. The settings on record: stress: pH 4. The procedure, abridged: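 Following acid stress at pH 4, the amount of each small protein domain still soluble was measured in pooled custom libraries by high-throughput quantitative proteomics. Its fold change, on a log2 scale, is higher when more of the domain stayed soluble. This fold change is taken as a measure of aggregation propensity.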
As to “HMEVLEGFIEDIKFKSEESGYTVAKLNNRNKSIVIVGTMPFISEGQHVKLTGEWKIHQKFGAQFNVKELEE”, the “soluble fraction (log2)” value is -1.37.

As for “HMEVMYFIYQQEEPMRIDKFLVNEMEDFSRNSIQIYIKDNHVLVNDKVVKANYILKKGDAISITIPDPI”, the “soluble fraction (log2)” value is -0.768.

On to “HMEVNMEEKMEFVHSYIKTHKTFLFRQLLSESKSRTQVIVTFLVILELIKGGKISVTQENRTDDILINSL”, for which the “soluble fraction (log2)” value is -0.521.

For “HMEVPDTIIRLRELVAAMPEQWQKVYRLVFMEGLSKAKAGKKIGISDVRVGQLVKKINAAIAGDETLK”, the “soluble fraction (log2)” value came to 0.0594.

For the sequence “HMEVPMELPRQLRANRERLGLSQEDVAHAIYVSRQTMSSWERGKTYPDVQSLMLLSHLFGISIDELVKGDV”, the “soluble fraction (log2)” value is -0.338.

Consider “HMEVPVQYIKFKIPENHFWAKKKVADIILPPETLLVLLQRGSDKMIPDGETVLLPEDTLVLIAKAPG”, for which the “soluble fraction (log2)” value is -0.783.

With “HMEVSVPDFTGMSKSDAQNAAKEAGLTVNFEEDYDNQVPAGQVIRSNPSAGEKVKKNSSVTVTLSKGSN”, the “soluble fraction (log2)” value was 0.24.

As to “HMEVSYSLPRFHKGKNPYVDFYQVDPRTLRMRRKKFLLRGVRDAVLLEQRAADLVALLTERLHSGWNAWDD”, the “soluble fraction (log2)” value was -0.463.

Take “HMEVTENQEKHAYQEAMDQALRFLAPRFLSRAELTRKLLQKEHDRDVIDAVIDRLEELDYVDDAR”: the “soluble fraction (log2)” value is -0.69.

Consider “HMEVTLGLGSMVRLLGEPYLGSTGRVVELPDQAERFASGLTAKVAVVERHDGELIRVPVTNLLLME”, for which the “soluble fraction (log2)” value was 0.214.

As to “HMEVTLTLKSFGTAKVAVIKAIQSITGLGLMDAKKLVDAAPSVIKEKISPSEAEQYKKTLVDAGAEVEI”, the “soluble fraction (log2)” value was 0.0249.

“HMEVVVPDFEKIYIRDLDKFVEGHNVRYEIVDSIYNLEKDKGTVVDQDPEPGSKVKHGRVIYLTVNAML”: the “soluble fraction (log2)” value was -0.678.

Regarding “HMEVVVPEDLDAALQQASRAQSFFSSLSYTHKKEYVAWINEAKRAETRAMRIQKTITMLESGQRGH”, the “soluble fraction (log2)” value was determined as 0.28.

On to “HMEWEVHSVTVTPELSGERLDVAATALLSQFSRALVQRWIDANELTLNERPVKAKSKVRVGDLIAVKAK”, for which the “soluble fraction (log2)” value is 0.0878.

Turning to “HMEWLENIKKLKKEKGLTNESLSEKSGISVGTLNKLLSGATTDPKLSTLRPLADALEVSLDELLAI”, the “soluble fraction (log2)” value was -0.187.

Take “HMEWTDIPTHKVPNVVGKSVEEAKKKLSKFTIEYSGTGEKVVAQSPDAGEKLEEGGTVRLLL”: the “soluble fraction (log2)” value stood at 0.00183.

Turning to “HMEYEETMSQIKHNLNLLPRQQRVIIEMAKFDELTPAEIAKQLGISVQTVRNQLSTGLKKLRQLL”, the “soluble fraction (log2)” value was -0.373.

Regarding “HMEYKKKIGELLIDGNKKLKAANIDTYILDTQLLLGKVLGKDKLYLITNKDEEVSNFKEREFYSLIEKRI”, the “soluble fraction (log2)” value is -0.304.

Turning to “HMEYMKQRLYDIIELFKRSFSPSFSEEEKKKLENVLQDDFLRKAYEQLSDEVFIEEKFREFDGY”, the “soluble fraction (log2)” value was -2.28.

As for “HMEYPNEIARIFNQIPELNVSAVARTLGINKSLLSSYIYGMKKPSPERTEEIKSAIRKIGQNMLAV”, the “soluble fraction (log2)” value was 0.000369.

Regarding “HMEYQSLVLDFLEQGDFNAEKLKDYQRAFAKQNGMQTLPSKSQILQAYFQLVEEKKINKNSDFELLLRKR”, the “soluble fraction (log2)” value is -0.362.

On to “HMEYSNLGEALRRLSEIDLQIILLKYSHGFSIKEISKILDIKEVNLYKRNKRALNKLKKILAEMEVLSN”, for which the “soluble fraction (log2)” value is -0.272.

On to “HMEYYDDEELDRFRGVEADAYDEDAVNEFRDVLYTLQEIEVAGWLRSLQLRAINLPDELKDEAFLI”, for which the “soluble fraction (log2)” value was -2.01.

On to “HMEYYEDEELDRFRGRNSDQYSDAEIEEFNEILTTLRSEEVAGWIRSLQLREIALPDELKDDVILLVG”, for which the “soluble fraction (log2)” value is -1.51.

Regarding “HMEYYIMPVANLHKVVVDGKDMSNLISNNAIAVKANVIDEGQIQIKPGEIIITTPAGVSPEEAVRSP”, the “soluble fraction (log2)” value was -0.135.

With “HMFANQLLLTRFDLNYIKSDVLSRQIDVLGIPIKKLTIEANNKSIWLQGTSQSLSKVRELIGIIDIRENA”, the “soluble fraction (log2)” value is -1.73.

Regarding “HMFAQDKKFITYKVKEGETVQSISKALSITPYDLLKLNPDIKDNVSQDDLLIIPNKQYDPLGDI”, the “soluble fraction (log2)” value was determined as 0.421.

As for “HMFDENVKLIENEYDVSIISRGSELKVMGDVENVDKAARALRSMLAMINKGESLTEQNVRYVLTLVNEGNE”, the “soluble fraction (log2)” value was -1.38.

With “HMFDFLELGQAIQDAREKQRITREELAEELGISARHLQSVEKEGQYPSFRLFIQLVTMFHISVDQYI”, the “soluble fraction (log2)” value was -0.586.

For the sequence “HMFDLATVKRVAEEAGMKFTIHPVELRAAHPNTAVLTLKSKAGRILVLKAASVGGGRIRVTEIDGVPAD”, the “soluble fraction (log2)” value amounted to 0.219.

“HMFDLDIEQIANDLKHGVMPNLYGLSLQDALYLLEAKGIRVKVAGSGSVVNQSIKTGAYVGSGSVLKLEL”: the “soluble fraction (log2)” value was -0.833.

For “HMFDLSQRQEQIIEIVRKHGPITGEKIADLLYVTRAALRPDLAILTMSGYLEAKPRVGYTYK”, the “soluble fraction (log2)” value is -0.0725.

Turning to “HMFDMLGDQIKKYRKEKKMSQEELAIPLNVVRQTVSKWENNLSVPDAELLIRLAEVLEISVAELLGT”, the “soluble fraction (log2)” value is -0.76.

For “HMFDTVFIVRKTSDKPLDGLRTYLNSIGDSLVIGEDDEAFKVHVHTNHPGKVLEEAITYGALQTVKIENMR”, the “soluble fraction (log2)” value was -0.585.

Consider “HMFDTVTIGRKIAELRKAHNMTQFELADALGISFQAVSNWERGASMPDISKLPELAEIFGVTIDEVLGK”, for which the “soluble fraction (log2)” value was -1.06.

With “HMFEATGKITGTEVSFRRKPTTDSERILFFDINTEFRVIGINNGWYKGVYQGKTGYVRSDFVEIVGG”, the “soluble fraction (log2)” value is -0.448.

For the sequence “HMFEEPYLATYPVLIDPKLAFNVLDTMLEGLEVKMDQDEETGAISVLAPASIHTKITEYLDALSKQ”, the “soluble fraction (log2)” value was -1.74.

Regarding “HMFEERKKDWNLTGLLDDVIRRYIHQLTNDELNEINLEKSSGMPDEEIKNGIKLPLAVMQQRRETWGS”, the “soluble fraction (log2)” value is -0.308.

On to “HMFEQRLRQAMKELRLKQVQVAGLTGKSRGAISQYLSGDRVPPDGVQREMAIALGLEADYFSR”, for which the “soluble fraction (log2)” value is 0.343.

With “HMFERFIFTDEVYIRLKKSGLPQTTLRPLLEIHGKSFDHNEINIILSGLIPNQDFERYAQIIKSHSRF”, the “soluble fraction (log2)” value is -2.14.

In the case of “HMFEYDEIMEQSVPKIAWGSLLTIMKKASSHKEMLWYINETYKNGWSRSMVLNQIAMASYERSLIE”, the “soluble fraction (log2)” value is -0.918.

On to “HMFFDKIIVDFLADGSRIDKYISTLYPDISRTHIQRLIAEQFILVNDSVVKSNYKLSTNDVVLIHIPEA”, for which the “soluble fraction (log2)” value is -1.78.

Take “HMFFMTMGEKIQLLRKKQNWSQETLAEKLSVSRQAVSLWERDESQPELDKLLKLAKIFSVTTDYLIDDSVT”: the “soluble fraction (log2)” value is -0.0472.

On to “HMFGGIEFGWSQLPDGRVEYIIQLDDQAIAALKNGRSLTSSLPPEVQNADRIRIQYGAGPVEKGLLLQ”, for which the “soluble fraction (log2)” value is -0.0928.

For the sequence “HMFIEMDEPEKILHRILNEANGKLELDKIGYRAEWPIGKVLTVLMSLELKGVVQSHPGKVYSL”, the “soluble fraction (log2)” value is -0.464.

Turning to “HMFIGFLHQLKEAGVPVSIREYLDFLSGLDKGITNLNTNSFYHFARASLVKDERHYDRFDRTFSEFFEGAL”, the “soluble fraction (log2)” value was -1.71.

For “HMFIQLSQEEKKVVEGLQQRSKTHLDALALEVGQNISKTAAMLMELEMKGVVRALPGKYYEL”, the “soluble fraction (log2)” value is -0.239.

For “HMFKEVPVPDVKGMTLEEAKLALEKEGFILGKTEEAESTEVAAGKIISQNLEAGKIAKQGTSVNLVVSKGK”, the “soluble fraction (log2)” value was -0.0392.

Turning to “HMFKLPRTIGTFEDSDVVIGAGKFGPYIMHNKKFVSLPKSEDPLTIGLERAIELISAKREQEKQRH”, the “soluble fraction (log2)” value is 0.237.

Consider “HMFLPFFDNLRKAGVPVSLREFLGFLEGMKAGLATYDIDAFYFLARTTMVKDERNLDKFDRAFSATFKG”, for which the “soluble fraction (log2)” value is -0.935.

On to “HMFNDGEIAIYTDPRGDAGETQIWKRGKGYYGQNDSFDFEAKDKKELEMKLKRWGYVLIAGSIDE”, for which the “soluble fraction (log2)” value is -0.0774.

For the sequence “HMFNGDPTTRESILASARAEIDQYGIIGLRLSAVAEKAQVSVPLIYKYFEDRDGLLAVVLGDW”, the “soluble fraction (log2)” value is -1.36.

With “HMFNTWLGEIRSNTGANVRSGPDASAAIVDARPNETVVRVIGQSGNWLQIGDKQFVAQSLVAP”, the “soluble fraction (log2)” value was -0.0317.

Take “HMFPDLTGDELRIVDLLNTANDLQVNIITAKTNLPISRVTSLLFQLEMKGVVKPLAGGMYHLLG”: the “soluble fraction (log2)” value is -0.117.

In the case of “HMFPELDEEEQKITKLLQAQNDLPANIIAVKTALNIGTTQAKLFSLEMKGVVKPYAGGFYHLL”, the “soluble fraction (log2)” value stood at 0.0183.

As for “HMFPNLTNEEQQVMKVLAKTNDLQINMLSVQSNLPIARLTALLFSMEMKGVVKTLAGGVYHLL”, the “soluble fraction (log2)” value is 0.375.

As for “HMFPNSFSEREKEVVDLLLQAKSNKQIAFSLGITNRTVEYHLGNIFAKLGVSSRSEAILTITNYKNQ”, the “soluble fraction (log2)” value was -1.27.

With “HMFPQVEVQLIYSYKSDRILNKMLKEFNVVILNQVFKDDILTSFHMNYSLVNQLITKIKSYPDISYKIIN”, the “soluble fraction (log2)” value was -0.89.

On to “HMFPTLNEDEQTIVSALQKINDQPINTLSIHTALPIPRLTSLLFQLEIKGVIKQLAGGTYHVL”, for which the “soluble fraction (log2)” value was -0.147.

On to “HMFQLSNEAKQQVLGELKRYESKQSAVLPALYIGQKDNKGHITPEVIRELSKVMDIPESQINEVFTFYTM”, for which the “soluble fraction (log2)” value was -0.402.

For “HMFQRLPFSFANRYKMVLEYQHPERPPVLYYVEPLKAAAILEVSRVIKSGFTPQAIVSDEFEKKLTEAYQR”, the “soluble fraction (log2)” value was determined as 0.0565.

Turning to “HMFRMTPQRMAILAEVQNAERHLTAAEIYERVRRKYPTIAYGTVYRTLHLLAKHGLIQEFPFGDNASLFDR”, the “soluble fraction (log2)” value is -0.0123.

For “HMFRPRIEPGAKGSYVLEVQKRLAKLGYEHAGFDGVYGPGTERAIMQLQRDKGLPVTGIVDMRTYEALGLF”, the “soluble fraction (log2)” value was at least 0.43.

As to “HMFRSTLEELKHQISGFLKANQSQEFTAQNLADGLRMTSIAEYKRVVNAMDALVRDGELTFDAGKYQYNPN”, the “soluble fraction (log2)” value is 0.252.

Consider “HMFSMKDFGQRLRQLRKERGLTQGDLARLAKIDIMQVSRYERGLGLPSLETAIALARVLETSTDLLFLG”, for which the “soluble fraction (log2)” value is -0.0792.

For the sequence “HMFSPSDEDLELAHRQIRAFEEVEANGKSIAVVDGRIVESLHIVTARDTLEKAKAITALAEEM”, the “soluble fraction (log2)” value was -0.0013.

On to “HMFSVVDKITLQEELKKLSKKEQLLIQLRYYDELNQEEIAKIFHVSQVQISRMEKKIIEKLKKQF”, for which the “soluble fraction (log2)” value worked out at 0.273.

With “HMFTDEELEHIRSALIQAGIRLSKELGLQKMSVEKLTAAVGIAKGSFYMFFGSKEDFILEVAEYTGAQ”, the “soluble fraction (log2)” value is -0.679.

As for “HMFTEEEMTKLRHELILAGIRLSRELGLQRMSVEKITSAVGIAKGSFYIFFDSKEDFILEIADHANRE”, the “soluble fraction (log2)” value is -0.828.
